Patent CN116102649A (SHANGHAI INST OF BIOLOGICAL PRODUCTS CO LTD, dated 2023)
Changes are numbered by the printed parent chain. In names and notes the source's numbering stands. Blank lines part the entries; values can stand above or below the binder they belong to.

Key:
[1] = molecular target: T1, 人CLDN18.2 (claudin-18 isoform 2 [Homo sapiens], NP_001002026.1) (human); assay: cell-based or functional assay
[2] = molecular target: T1, 人CLDN18.2 (claudin-18 isoform 2 [Homo …); assay: cell-based or functional assay; remark: listed apart in the source
[3] = molecular target: T2, 人CLDN18.1 (claudin-18 isoform 1 precursor [Homo sapiens], NP_057453.1) (human, UniProt P56856 1-261); assay: flow cytometry on HEK293-hCLDN18.1 cells
T2 construct: Full-length gene in pEGFP-N2, stably expressed on HEK293 cells (HEK293-hCLDN18.1); also called hCLDN18.1; HEK293-hCLDN18.1
T2 sequence: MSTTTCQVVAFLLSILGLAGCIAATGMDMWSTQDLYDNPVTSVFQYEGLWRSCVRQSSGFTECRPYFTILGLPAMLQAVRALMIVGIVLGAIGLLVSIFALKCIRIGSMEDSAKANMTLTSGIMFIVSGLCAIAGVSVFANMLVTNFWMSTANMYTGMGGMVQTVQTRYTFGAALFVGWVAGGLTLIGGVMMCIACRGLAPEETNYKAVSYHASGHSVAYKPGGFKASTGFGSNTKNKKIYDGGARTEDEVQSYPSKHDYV

[4] = molecular target: T1, 人CLDN18.2 (claudin-18 isoform 2 [Homo …); assay: cell ELISA on fixed HEK293-hCLDN18.2 cells
[5] = molecular target: T1, 人CLDN18.2 (claudin-18 isoform 2 [Homo …); assay: cell ELISA on fixed NUGC4 cells (endogenous human CLDN18.2)
[6] = molecular target: T1, 人CLDN18.2 (claudin-18 isoform 2 [Homo …); assay: flow cytometry on HEK293-hCLDN18.2 cells, MFI against concentration

CDC on HEK293-hCLDN18.2 cells (rabbit complement, CCK-8), EC50 [1]: 0.0309 µg/mL
ADCC reporter gene assay (Jurkat/NFAT-luc+FcγRIIIa) on HEK293-hCLDN18.2 cells, EC50 [2]: 0.0476 µg/mL
binding result [3]: no binding
EC50 [4]: 0.0173 µg/mL
相对结合活性 (relative to Ref.ch175) [4]: 180%
EC50 [5]: 0.57 µg/mL
EC50 [6]: 0.81 µg/mL
B1: 嵌合抗体ch782 (antibody, V domains shown)
VH: DVQLQESGPDLVKPSQSLSLTCTVTGYSITSGYSWHWIRQFPGNKLEWMGYIHYSDNTNYSPSLKSRISITRDTSKNQFFLQLNSVTTEDTATYYCARIYYGNSFVYWGQGTLVTVSA
VL: DIVMTQSPSSLTVTAGEKVTMSCKSSQSLLNSGNQKNYLTWYQQKPGQPPKLLIYWASTRESGVPDRFTGSGSGTDFTLTINSVQAEDLAVYYCQNDYFYPYTFGGGTKLEIK

binding result [3]: no binding
EC50 [4]: 0.0392 µg/mL
相对结合活性 (relative to Ref.ch175) [4]: 79.3%
B2: 嵌合抗体ch624 (antibody, V domains shown)
VH: QVQLQQPGAELVRPGASVKLSCKASGYSFTSYWMNWVKQRPGQGLEWIGMIHPSDSETRLNQKFKDKATLTVDKSSSTAYMQLSSPTSEDSAVYYCARTSYGNSFAYWGQGTLVTVSA
VL: B1 VL with N82S, F99S, Y102F, G106S

ADCC reporter gene assay on HEK293-hCLDN18.2 cells, EC50 [1]: 0.0709 µg/mL
CDC on HEK293-hCLDN18.2 cells (rabbit complement, CCK-8), EC50 [1]: 0.0476 µg/mL
B3: 人源化抗体hu782-HV (H1.2-V101A L2组合) (antibody, human IgG1, V domains shown)
VH: QVQLQESGPGLVKPSETLSLTCTVSGYSITSGYSWHWIRQPPGKGLEWMGYIHYSDNTNYAPSLKSRITISRDTSKNQFSLKLSSVTAADTAVYYCARIYYGNSFAYWGQGTLVTVSS
VL: DIVMTQSPDSLAVSLGERATINCKSSQSLLNSGNQKNYLTWYQQKPGQPPLLIYWASTRESGVPDRFSGSGSGTDFTLTISSLQAEDVAVYYCQNDYFYPYTFGGGTKLEIK
